From patent US20240336686A1 (ELPISCIENCE SUZHOU BIOPHARMA, published 2024) come the findings set out here.

Experiment [1] has as its target T1, His tagged human SIRPα v1 ECD (human, UniProt P78324 31-373).
T1 construct: extracellular domain; not shown: His tag
In words: HDX-MS.

For experiment [2], the target named is T2, mFc tagged human SIRPα v1 ECD recombinant protein (human, UniProt P78324 31-373).
T2 construct: extracellular domain; not shown: mouse Fc tag
In words: competitive ELISA; row antibody in excess in solution, coated mAb 025c. As to the method: (§1) Competitive ELISA assay was used for epitope binning of purified chimeric antibodies. Briefly excessive competitor antibody and mFc tagged human SIRPα v1 ECD recombinant protein were co-incubated with ELISA microplate coated antibody. After washing, HRP labeled anti-mouse Fc 2nd antibody (Sigma) was added and incubated at 37° C. for 1 hour. Then, 100 μl/well of TMB solution (Biotechnology) was added. After incubation for 15 minutes at room temperature, the reaction was stopped by the addition of 50 μl of 1N HCl. OD 450 nm was read. Competition ratio was calculated. The antibodies that can compete each other for binding to SIRPα may have related binding epitopes.
For orientation: An ELISA detects its analyte on a solid surface through an enzyme-linked reagent.

Experiment [3] deals with T3, human SIRPα v1 on CHOK1 cells (human, UniProt P78324 31-504).
T3 construct: whole, on cells; also called CHOK1-hSIRPα v1; cell surface human SIRPα v1
T3 sequence (P78324 31-504): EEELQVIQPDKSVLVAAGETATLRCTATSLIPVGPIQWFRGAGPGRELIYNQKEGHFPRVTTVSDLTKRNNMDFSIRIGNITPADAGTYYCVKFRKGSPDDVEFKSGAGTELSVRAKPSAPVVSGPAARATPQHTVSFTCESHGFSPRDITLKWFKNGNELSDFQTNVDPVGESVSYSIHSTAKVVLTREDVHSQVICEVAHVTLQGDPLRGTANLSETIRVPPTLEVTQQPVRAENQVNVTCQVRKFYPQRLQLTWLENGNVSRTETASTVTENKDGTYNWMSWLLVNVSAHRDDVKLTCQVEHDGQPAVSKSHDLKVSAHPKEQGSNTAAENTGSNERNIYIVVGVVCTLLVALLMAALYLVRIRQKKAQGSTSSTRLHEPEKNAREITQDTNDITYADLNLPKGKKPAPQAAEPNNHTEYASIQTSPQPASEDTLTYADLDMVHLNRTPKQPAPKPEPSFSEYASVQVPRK
In words: FACS, CHOK1 cells stably expressing human SIRPα v1. In general terms: Flow cytometry measures light scatter and fluorescence of single cells or particles in a stream.

Experiment [4] concerns the target T4, human SIRPα v2 ECD recombinant protein (human).
T4 construct: extracellular domain; Coated on the ELISA plate
In words: competitive ELISA, plate-coated human SIRPα v2 ECD; blocked ligand: mFc tagged human CD47 ECD. The protocol:
(§2) Competitive ELISA assay was used to determine whether the purified chimeric antibodies can block CD47 and SIRPα interaction. Briefly, antibody and mFc tagged human CD47 ECD recombinant protein were co-incubated with ELISA microplate coated human SIRPα v1 ECD or human SIRPα v2 ECD recombinant protein. The concentration of soluble ECD of CD47 is 25 nM, and the concentration of soluble ECD of SIRPα is 20 nM. After washing, HRP labeled anti-mouse Fc 2nd antibody (Sigma) was added and incubated at 37° C. for 1 hour. Then, 100 μl/well of TMB solution (Biotechnology) was added. After incubation for 15 minutes at room temperature, the reaction was stopped by the addition of 50 μl of 1N HCl. OD 450 nm was read. Blocking ratio was determined by blockade of human SIRPα ECD recombinant protein binding to ELISA microplate coated human CD47 ECD recombinant protein. All antibodies as tested can block interaction between human CD47 and different human SIRPα variants.
(§3) The humanized antibodies were tested for the ability to block CD47 and SIRPα interaction with competitive ELISA assay (refer to methods described above).

For experiment [5], the target named is T5, human SIRPα v2 on CHOK1 cells (human, UniProt P78324 31-504).
T5 construct: whole, on cells; also called CHOK1-hSIRPα v2; cell surface human SIRPα v2
T5 sequence (P78324 other isoform, or with tags, fused parts or gaps limits assumed): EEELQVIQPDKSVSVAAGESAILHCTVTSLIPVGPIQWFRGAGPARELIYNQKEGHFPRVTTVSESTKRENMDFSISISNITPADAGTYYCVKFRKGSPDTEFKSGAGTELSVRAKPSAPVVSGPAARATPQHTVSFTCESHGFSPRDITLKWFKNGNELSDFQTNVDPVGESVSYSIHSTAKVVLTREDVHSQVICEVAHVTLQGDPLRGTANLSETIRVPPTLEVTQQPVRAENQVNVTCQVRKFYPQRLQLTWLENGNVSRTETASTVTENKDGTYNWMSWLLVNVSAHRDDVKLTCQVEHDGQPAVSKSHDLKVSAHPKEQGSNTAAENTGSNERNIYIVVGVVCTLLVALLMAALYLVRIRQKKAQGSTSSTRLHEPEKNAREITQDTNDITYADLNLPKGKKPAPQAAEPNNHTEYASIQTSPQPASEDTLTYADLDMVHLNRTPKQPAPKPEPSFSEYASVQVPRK
Kind of experiment: FACS, CHOK1 cells stably expressing human SIRPα v2.

The target in experiment [6] is T5, human SIRPα v2 on CHOK1 cells. In words: FACS, CHOK1 cells stably expressing human SIRPα v2. An excerpt:
(§4) Binding activity of the purified chimeric antibodies against human SIRPα variants was detected by FACS assay using CHOK1 cells or 293F cells stably expressing human SIRPα v1 and CHOK1 cells stably expressing human SIRPα v2. […] EC₅₀ and top signal calculated using GraphPad Prism9.0.
The source holds these as a separate data set.

For experiment [7], the target named is T3, human SIRPα v1 on CHOK1 cells. Kind of experiment: FACS, CHOK1 cells stably expressing human SIRPα v1.
From the text: as §4
The source holds these as a separate data set.

In experiment [8] the target is T6, human SIRPα v1 ECD recombinant protein (human, UniProt P78324 31-373).
T6 construct: extracellular domain; Coated on the ELISA plate
T6 sequence (P78324 31-373): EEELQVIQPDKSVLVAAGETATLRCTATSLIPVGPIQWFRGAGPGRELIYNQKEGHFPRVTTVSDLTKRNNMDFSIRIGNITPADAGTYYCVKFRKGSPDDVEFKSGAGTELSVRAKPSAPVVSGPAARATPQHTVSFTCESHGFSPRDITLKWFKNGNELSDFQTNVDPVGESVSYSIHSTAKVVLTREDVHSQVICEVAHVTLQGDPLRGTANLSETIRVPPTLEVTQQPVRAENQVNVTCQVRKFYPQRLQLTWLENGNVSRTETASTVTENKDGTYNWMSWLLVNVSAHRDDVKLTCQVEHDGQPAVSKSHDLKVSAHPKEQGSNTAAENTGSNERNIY
Kind of experiment: competitive ELISA, plate-coated human SIRPα v1 ECD; blocked ligand: mFc tagged human CD47 ECD. The protocol:
as §2, §3

The target of experiment [9] is T7, Full length human SIRPα v1 with beta-gal fragment (ED) at its C-terminal, in K562 cells (human, UniProt P78324 31-504). Kind of experiment: cell-based or functional assay.
T7 sequence (P78324 31-504): as the sequence (P78324 31-504) above
For experiment [10], the target named is T2, mFc tagged human SIRPα v1 ECD …. Kind of experiment: competitive ELISA; row antibody in excess in solution, coated mAb 042c. As to the method: as §1
The next experiment concerns the target T8, Human SIRPα v2 (human).
T8 construct: also called human SIRPα v2 (antigen of the Biacore assay)
In words: SPR (Biacore), 1:1 binding model. The protocol:
The humanized antibodies were characterized for binding affinity against human SIRPα v1, human SIRPα v2 using Surface Plasmon Resonance technology (Biacore system). The association and dissociation curves were fit with 1:1 binding model, and the Ka/Kd/KD values for each antibody were calculated.
(In SPR one partner is held on a chip, and binding of the other changes the refractive index at the surface.)

Experiment [11] concerns the target T2, mFc tagged human SIRPα v1 ECD …. Kind of experiment: competitive ELISA; row antibody in excess in solution, coated mAb hu1H9G4. The protocol:
as §1

The target in experiment [12] is T6, human SIRPα v1 ECD recombinant protein. Kind of experiment: competitive ELISA, plate-coated human SIRPα v1 ECD; blocked ligand: mFc tagged human CD47 ECD. This is another data set of the same source.
For experiment [13] the target is unchanged. Described as above. The protocol: as §2, with “ECD” for “ECD or human SIRPα v2 ECD”, “protein.” for “protein. The concentration of soluble ECD of CD47 is 25 nM, and the concentration of soluble ECD of SIRPα is 20 nM.”, “protein.” for “protein. All antibodies as tested can block interaction between human CD47 and different human SIRPα variants.”
The source holds these as a separate data set.

For experiment [14], the target named is T7, Full length human SIRPα v1 with …. In words: cell-based or functional assay. The source holds these as a separate data set.
Experiment [15] addresses T4, human SIRPα v2 ECD recombinant protein. In words: competitive ELISA, plate-coated human SIRPα v2 ECD; blocked ligand: mFc tagged human CD47 ECD. The source holds these as a separate data set.
In experiment [16] the target is T3, human SIRPα v1 on CHOK1 cells. Kind of experiment: competitive FACS, CHOK1 cells stably expressing human SIRPα v1; blocked ligand: mFc tagged human CD47 ECD. As to the method:
(§5) Competitive FACS assay was also set up to further compare the blocking activity of the humanized antibodies and some known anti-SIRPα antibodies. Briefly antibody and mFc tagged human CD47 ECD recombinant protein were co-incubated with CHOK1 cells stably expressing human SIRPα v1 or human SIRPα v2. After washing, dye labeled anti-mouse Fc 2nd antibody (Sigma) was added and incubated at 37° C. for 1 hour. Fluorescence intensity was detected. Blocking ratio was determined by blockade of human CD47 ECD recombinant protein binding to SIRPα expressed CHOK1 cells.

Experiment [17] deals with T5, human SIRPα v2 on CHOK1 cells. Kind of experiment: competitive FACS, CHOK1 cells stably expressing human SIRPα v2; blocked ligand: mFc tagged human CD47 ECD. The protocol:
as §5

Read-outs that look alike come from different tables or passages of the source.

T2 sequence (P78324 31-373): as the sequence (P78324 31-373) above
T1 sequence (P78324 31-373): as above

B1: Reference anti-SIRPα antibody HEFLB (antibody, human IgG4, V domains shown)
VH: EVQLVQSGAEVKKPGESLRISCKASGYSFTSYWVHWVRQMPGKGLEWMGNIDPSDSDTHYSPSFQGHVTLSVDKSISTAYLQLSSLKASDTAMYYCVRGGTGTLAYFAYWGQGTLVTVSS
VL: DVVMTQSPLSLPVTLGQPASISCRSSQSLVHSYGNTYLYWFQQRPGQSPRLLIYRVSNRFSGVPDRFSGSGSGTDFTLKISRVEAEDVGVYYCFQGTHVPYTFGGGTKVEIK
For B1, the binding result in [1] is recorded as “binds”.

B2: Anti-SIRPα antibody C25 (antibody, V domains shown)
VH: EVQLQQSGAELVKPGASVKLSCTASGFNIKDYYMHWVKQRTEQGLEWIGRIDPEDGETKYAPKFQGKATITADTSSNTAYLQLSSLTSEDTAVYYCDRGLAYWGQGTLVTVSA
VL: QIVLTQSPAIMSASPGEKVTLTCSASSSVSSSYLYWYQQKPGSSPKLWIYSTSNLASGVPARFSGSGSGTSYSLTISSMEAEDAASYFCHQWSSYPYTFGGGTKLEIK
notes: Mouse variable regions; also called 025c; 025
Usually EC50 stands for the concentration that produces a half-maximal response. The low end stands for higher potency in that assay, the high end for lower potency in that assay. As usually defined, the IC50 is the concentration at which inhibition is half-maximal. As usually defined, the Kd is a measure of binding affinity in units of concentration. High values mean a looser complex, low ones a tighter complex. As a reminder, the koff is the rate constant with which the complex falls apart. Broadly, the kon is a measure of how fast the partners come together. Low readings indicate slower complex formation, high ones faster complex formation. With B2, the “% Competition” value in experiment [2] turned out to be 93.5%; in experiment [10], 19.1%; in experiment [11], 15.3%. Moreover, the EC50 in [3] was 1.22 nM; in experiment [5] it was 0.99 nM; in experiment [6], 1.34 nM; in [7] it was 1.49 nM. Besides, the “TOP MFI” value stood at 64700 MFI in experiment [3], 53000 MFI in experiment [5], 51600 MFI in experiment [6] and 77600 MFI in experiment [7]. Also, the half-inhibitory concentration (IC50) in experiment [4] was 1.86 nM; in experiment [8] it was 2.03 nM; in experiment [12], 2.12 nM; in experiment [15] it was 2.21 nM; in experiment [16], 0.4 nM; in [17], 0.63 nM. The TOP blocking in experiment [4] worked out at 98.6%; in experiment [8] it was 97.5%; in experiment [12], 96.5%; in experiment [15], 96.5%; in experiment [16] it was 97.6%; in experiment [17], 99.7%. In addition, the “IC50 (SHP-1 recruitment blocking)” value in [9] was 0.08 nM; in experiment [14] it was 0.28 nM. The “TOP blocking (SHP-1 recruitment)” value in experiment [9] was determined as 87%; in experiment [14] it was 84.5%. In the experiment with Human SIRPα v2, this molecule showed a Kd of 1.69 nM. This molecule also registered a koff with Human SIRPα v2 of 0.00254 s⁻¹. In the experiment with Human SIRPα v2, this molecule gave a kon of 1.51e+06 M⁻¹ s⁻¹. Also, in experiment [13], the “IC50 (read off the curve)” value is approximately 2 nM.
